Source: patent US20250154240A1, “ANTI-HUMAN CXCL1 ANTIBODY” (CHIOME BIOSCIENCE INC., priority 2022, published 2025)

Experiments:
[1] = target: T1, HuCXCL3 (Homo sapiens, UniProt P19876); test: FACS, inhibition of binding of APC-labeled HuCXCL3 to HEK293 cells forced to express HuCXCR2; assay type: cell-based; settings: APC-labeled ligand 10 μg/mL; HEK293 cells expressing HuCXCR2
T1 construct: purchased PROTEINTECH
T1 sequence (P19876 35-107): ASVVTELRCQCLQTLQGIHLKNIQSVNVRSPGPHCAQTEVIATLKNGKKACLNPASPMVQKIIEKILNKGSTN
Method: Chemokines are stabilized by directly binding to GAG on the cell surface and thereby allow efficient signal transduction to their receptors. […] Then, to evaluate whether Hu5A-5E11 inhibits the binding of CXCLs to cells, the binding of fluorescently labeled CXCLs to cells was measured as fluorescence intensity by flow cytometry in FACS. For this purpose, HEK293 cells forced to express HuCXCR2 were used. For use as HuCXCL1, 2, 3 and 5 and MsCXCL1, the proteins in above were labeled with APC.
The cultured cells were detached and washed with PBS, and then suspended at 5.0× 10^5 cells/mL in PBS containing 1% BSA (hereinafter referred to as the FACS buffer). Each of the APC-labeled ligands and Hu5A-5E11 were mixed at final concentrations of 10 μg/mL and 16.7 μg/mL, respectively, and reacted at room temperature for 30 minutes, and then added to the cell suspension and reacted on ice for 30 minutes. After washing with the FACS buffer, the cells were suspended again in PBS containing 1% 7-AAD, 0.5% BSA and 2 mM EDTA, followed by the above flow cytometry to measure fluorescence intensity.

[2] = tested on: OCUM-12 gastric cancer cell line; test: Antitumor activity, treatment model with OCUM-12 orthotopic transplantation; assay type: in vivo, mouse; settings: compared to PBS
Method: OCUM-12 cells were cultured in D-MED medium (FUJIFILM Wako Pure Chemical Corporation, Japan) supplemented with 10% fetal bovine serum (hereinafter abbreviated as FBS; Sigma-Aldrich Corporation) and 1/100 volumes of a penicillin-streptomycin mixture (Nacalai Tesque, Inc., Japan). The cells to be transplanted were detached with 0.25% trypsin/0.02% EDTA (Thermo Fisher Scientific) and washed with PBS, and 4×10^5 cells per mouse were transplanted into the gastric wall of each mouse. On the day following the transplantation, the mice were randomized into groups (8 mice per group) and intraperitoneally administered with test antibodies at a dose of 400 μg/head. […] After 3 weeks had passed from the transplantation, the mice were sacrificed, and the short- and long-axis diameters of tumors formed in their gastric walls were each measured with a caliper. The tumor size was calculated according to the following: 1/2 short-axis diameter (mm)×1/2 long-axis diameter (mm)×3.14. […]
The dose-response relationship between antibody dose and in vivo antitumor activity or CXCR2 migration inhibitory activity was evaluated in a xenograft treatment model with OCUM-12 orthotopic transplantation. […] After 4 weeks had passed from the transplantation, the mice were sacrificed and evaluated.

[3] = target: T2, HuCXCL5 (Homo sapiens, UniProt P42830); test: ELISA, inhibition of binding of HuCXCL5 to GAG (heparin, heparan sulfate); assay type: biochemical; parameters: purchased PROTEINTECH; settings: antibody 0 to 10 μg/mL; biotin-labeled heparin or heparan sulfate 10 μg/mL
T2 sequence (P42830 37-114): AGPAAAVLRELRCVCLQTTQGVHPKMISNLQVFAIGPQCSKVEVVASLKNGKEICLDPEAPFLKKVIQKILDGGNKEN
Method: (§1) Thus, the effect of Hu5A-5E11 on the binding of CXCLs to GAG was evaluated by ELISA assay using plates on which the antigen (HuCXCL1 protein) used for immunization or HuCXCL2, 3 and 5 and MsCXCL1 and 2 proteins had been directly immobilized. CXCLs other than HuCXCL1 were purchased from PROTEINTECH and used. Biotin-labeled heparan sulfate and heparin were purchased from PG Research and used.
(§2) To 96-well plates, phosphate-buffered saline (PBS) containing 3 μg/mL of HuCXCL1, 2, 3 or 5 or MsCXCL1 or 10 μg/mL of MsCXCL2 was added in a volume of 50 μL per well, and the plates were allowed to stand overnight at 4° C. After removal of the antigen solutions, PBS containing 0.05% Tween-20 (hereinafter referred to as the blocking solution) was added to each well for blocking reaction, and the plates were allowed to stand at room temperature for 30 minutes. […] TMB (Dako) was added as a chromogenic substrate solution to cause color development, and 1 N sulfuric acid was added to stop the reaction, followed by measurement of absorbance at 450 nm. The binding rate of CXCLs to GAG was calculated as a ratio relative to the absorbance measured in the absence of the antibody, which was set to 100%.

[4] = target: T1, HuCXCL3; test: ELISA, inhibition of binding of HuCXCL3 to GAG (heparin, heparan sulfate); assay type: biochemical; settings: antibody 0 to 10 μg/mL; biotin-labeled heparin or heparan sulfate 10 μg/mL
Method: as §1, §2

B1: Hu5A-5E11: humanized antibody VH1/VL1; VH SEQ ID NO: 76, VL SEQ ID NO: 78 (antibody, V domains shown)
VH: QVQLVQSGAEVKKPGSSVKVSCKASGYAFSDYWMNWVRQAPGQGLEWIGQIYPGSGDTNYNAKFKGKGTITADKSTSTAYMELSSLRSEDTAVYYCARERDYDVAMDYWGQGTTVTVSS
VL: DIQMTQSPSSLSASVGDRVTITCKASQDINKYIAWFQQKPGKAPKLVIHYTSILQPGVPSRFSGSGSGTDYTFTISSLQPEDIATYYCLQYDNLPWTFGGGTKVEIK
Inhibitory activity against the binding of HuCXCL3 to cells (fluorescence intensity) [1]: reduce the fluorescence intensity of the cells in an antibody concentration-dependent manner | Dose significantly suppressing the tumor area [2]: ≥ 60 μg/head | Inhibitory activity against the binding of HuCXCL5 to GAG [3]: inhibit the binding of HuCXCL1, 2, 3 and 5 and MsCXCL1 to GAG in an antibody concentration-dependent manner | Inhibitory activity against the binding of HuCXCL3 to GAG [4]: inhibit the binding of HuCXCL1, 2, 3 and 5 and MsCXCL1 to GAG in an antibody concentration-dependent manner
